Laboratory results published in article PMC2217671.

Substrate: NCCC[C@H](N)C(=O)O
Assay: purified protein
Settings: 200 uM PLP, 12.5 mM DTT, 250 mM Tris pH 7.5, 37 °C, 0.002% BRIJ-35 added, enzyme unstable, low activity

B1: recombinant E. histolytica putative ornithine decarboxylase (ODC)-like protein (Entamoeba histolytica) (protein)
chain: MKQTSLEVKEFALNLISQFEPENQPLGFWIFDTEGVEKAVERWKKNMPTVRPCFAVKCNPEPHLVKLLGELGCGFDCASLNEIKEVLDLGFNPEDITYSQTFKPYNQLIEASHLGINHTIVDSIDEVQKIAKYAPKMGIMIRIMENDTSAGHVFGEKFGLHDDEVEIVLKEIKDKGLNLDGVHFHVGSDSHNSEVFTKALTKARNTVTLAEQFGMKPYLIDIGGGFSQVAPFEEFAATIEKTIKELEFPERTRFIAEPGRYMASNAFHLVSSLHGKRVRIQNGKKQIEYTSGDGLHGSFGCCIWFEKQKSCECITQKVNENTKMYESIIYGPSCNGSDKVATQELPEMEPGKDWLLFPNMGAYTISMATNFNGFEERNHVIYTLPLKSTKIIQIPKSIECNSVPSLNGIPHYA
Km: 1500 µM
